Experiment [1] concerns the target BSG-SCd4d3+4bio (human; rat) (UniProt P35613). The experiment can be described thus: SPR (BIAcore T100, 37° C.), kinetic analysis at 100 µl/min, global 1:1 fit. On the technique in general: Surface plasmon resonance follows binding to a sensor surface in real time, without labels.
Experiment [2] has the same target. The experiment is described as follows: SPR (BIAcore T100, 37° C.), Rh5 injected over BSG-S captured on streptavidin, equilibrium, non-linear curve fit.
Experiment [3] has as its target BSG-L bait (biotinylated ectodomain of the long, three domain isoform of BASIGIN) (human; rat) (UniProt P35613). The experiment can be described thus: SPR (BIAcore T100, 37° C.), Rh5 injected over the immobilised three domain isoform of BSG.
Experiment [4] addresses human BSG on erythrocytes (human) (UniProt P35613). The experiment is described as follows: cell-based or functional assay.
Experiment [5] deals with P. falciparum invasion ligand Rh5 (of the parasites in the invasion assays) (Plasmodium falciparum). The experiment is described as follows: cell-based or functional assay.
Experiment [6] has as its target T1, biotinylated CD4 domains 3+4 alone (negative control) (rat, UniProt P05540 207-394, enzymatically biotinylated on the C-terminal biotinylation sequence).
T1 construct: domain: domains 3 and 4; Immobilised on streptavidin-coated Nile Red fluorescent microbeads in the assay; also called Cd4d3+4; CD4-coated microbeads
T1 sequence: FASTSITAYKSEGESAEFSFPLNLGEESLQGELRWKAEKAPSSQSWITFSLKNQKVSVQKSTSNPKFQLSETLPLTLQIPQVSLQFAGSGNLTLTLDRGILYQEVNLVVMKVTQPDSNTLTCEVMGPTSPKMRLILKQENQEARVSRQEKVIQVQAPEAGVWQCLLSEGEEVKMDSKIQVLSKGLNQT
The experiment is described as follows: flow cytometry, protein-coated fluorescent microbeads on human erythrocytes. Background: Flow cytometry measures light scatter and fluorescence of single cells or particles in a stream.

human BSG on erythrocytes (human), sequence (P35613 22-385): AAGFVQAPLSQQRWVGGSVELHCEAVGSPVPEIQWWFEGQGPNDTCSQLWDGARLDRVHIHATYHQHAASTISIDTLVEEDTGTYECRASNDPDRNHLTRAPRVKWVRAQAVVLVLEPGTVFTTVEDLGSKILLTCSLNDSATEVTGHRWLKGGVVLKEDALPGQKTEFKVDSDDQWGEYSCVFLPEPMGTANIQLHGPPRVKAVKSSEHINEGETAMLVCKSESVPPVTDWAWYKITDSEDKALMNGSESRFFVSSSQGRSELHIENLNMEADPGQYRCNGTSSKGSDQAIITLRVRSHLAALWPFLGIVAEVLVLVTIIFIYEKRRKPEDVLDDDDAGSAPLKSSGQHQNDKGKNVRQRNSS

In experiment [1], “PfRh5Cd4d3+4-6H (from UniProt P05540 207-394) (ligand)” gave an interaction half-life of 2.9 s, a koff of 0.24 s⁻¹ and an association rate constant (kon) of 225000 M⁻¹ s⁻¹. The equilibrium dissociation constant (Kd) in experiment [2] worked out at 1140 nM. In experiment [3], the dissociation constant (Kd) amounted to 710 nM and the dissociation rate constant (koff) is 0.144 s⁻¹.
In experiment [4], MEM-M6/6 (antibody) had a concentration that prevented all detectable invasion, 3D7 strain, microscopy of more than 10 µg/mL.
Turning to “BSG-S-Cd4d3+4-COMP-His (from UniProt P35613 138-325; P05540 207-394; P35444 28-72) (receptor)”, in experiment [5], the inhibition of erythrocyte invasion, Dd2 P. falciparum strain, IC50 was found to be 1 µM.

B1: GLYCOPHORIN A (GYPA) on human erythrocytes (receptor)
chain: LSTTEVAMHTSTSSSVTKSYISSQTNDTHKRDTYAATPRAHEVSEISVRTVYPPEEETGERVQLAHHFSEPEITLIIFGVMAGVIGTILLISYGIRRLIKKSPSDVKPLPSPDTDVPLSSVEIENPETSDQ
modifications: sialylated (binding was lost after neuraminidase treatment of the cells)
notes: whole, on cells; also called native GYPA
For the molecule B1, in experiment [6], the binding result was “no binding”.

By koff is commonly meant a measure of how fast the partners let go of each other. Usually kon stands for a measure of how fast the partners come together. A high value points to faster complex formation. For orientation: Kd means the constant that tells how readily two partners part at equilibrium. Lower therefore signals higher affinity.

These data come from patent publication US20140093540A1 (published 2014).
